Source: patent publication US8604172B2, “Humanized antibody compositions and methods for binding lysophosphatidic acid” (Lpath, Inc., priority 2009, dated 2013)
Marks after values point to notes of the source that are not given here.

Columns and labels:
[1] = Direct binding ELISA of anti-LPA mAbs to 12:0 LPA
Experimental: The binding of 6 anti-LPA mAbs (B3, B7, B58, A63, B3A6, D22) to 12:0 and 18:1 LPA (0.1 uM) was measured by ELISA. EC50 values were calculated from titration curves using 6 increasing concentrations of purified mAbs (0 to 0.4 ug/ml). EC50 represents the effective antibody concentration with 50% of the maximum binding. Max denotes the maximal binding (expressed as OD450).

[2] = BIAcore 3000 kinetics, LPA immobilized on sensor chip; assay type: binding
Experimental: The kinetics parameters ka (association rate constant), kd (disassociation rate constant) and KD ([…] equilibrium constant) were determined for the 6 lead candidates using the BIAcore 3000 Biosensor machine. In this study, LPA was immobilized on the sensor surface and the anti-LPA mAbs were flowed in solution across the surface.
LPA was immobilized to the sensor chip at densities ranging 150 resonance units. Dilutions of each mAb were passed over the immobilized LPA and kinetic constants were obtained by nonlinear regression of association/dissociation phases. Errors are given as the standard deviation using at least three determinations in duplicate runs. Apparent affinities were determined by […].
ka=Association rate constant in M^−1s^−1kd=Dissociation rate constant in s^−1

[3] = Competition ELISA (18:1 LPA coat), competitor 14:0 LPA; settings: maximum inhibition (% of binding in the absence of inhibitor)
Experimental: Many isoforms of LPA have been identified to be biologically active and it is preferable that the mAb recognize all of them to some extent to be of therapeutic relevance. The specificity of the anti-LPA mAbs was evaluated utilizing a competition assay in which the competitor lipid was added to the antibody-immobilized lipid mixture.
Competition ELISA assays were performed with the anti-LPA mAbs to assess their specificity. 18:1 LPA was captured on ELISA plates. Each competitor lipid (up to 10 uM) was serially diluted in BSA (1 mg/ml)-PBS and then incubated with the mAbs (3 nM). Mixtures were then transferred to LPA coated wells and the amount of bound antibody was measured with a secondary antibody. Data are normalized to maximum signal (A450) and are expressed as percent inhibition. Assays were performed in triplicate. IC50: Half maximum inhibition concentration; MI: Maximum inhibition (% of binding in the absence of inhibitor); - - -: not estimated because of weak inhibition. A high inhibition result indicates recognition of the competitor lipid by the antibody.

[4] = Competition ELISA specificity, competitor DSPA; assay type: binding; settings: maximum inhibition, n = 3
Experimental: The specificity of the anti-LPA mAbs was assessed for their binding to LPA related biolipids such as distearoyl-phosphatidic acid, lysophosphatidylcholine, S1P, ceramide and ceramide-1-phosphate.

Solubility = assay type: physicochemical; settings: 6.6 mM phosphate, 154 mM sodium chloride, pH 7.4
SKOV3 cell invasion = experiment: SKOV3 invasion assay; assay type: cell-based, human; settings: Lpathomab (15 mg/mL); 2 μM 14:0 LPA; n = 2
SKOV3 cells = experiment: Taxol-induced apoptosis / caspase activity in SKOV3 cells; assay type: cell-based, human
Experimental: The ability of LPA to protect ovarian tumor cells against apoptosis when exposed to clinically-relevant levels of the chemotherapeutic agent, paclitaxel (Taxol) was investigated. […] LPA protected SKOV3 cells from Taxol-induced apoptosis. Apoptosis was assayed by measurement of the caspase activity as recommended by the manufacturer (Promega). As anticipated, LPA protected most of the cancer cell lines tested from taxol-induced cell death. […] Moreover, the anti-LPA antibody was able to remove the protection provided by serum. Serum is estimated to contain about 5-20 uM LPA. […] Taxol-induced caspase activation was enhanced by the addition of LT3000 to the culture medium.

[5] = Surface plasmon resonance, 12:0 LPA on GLC sensor chip; assay type: binding
Experimental: All binding data were collected on a ProteOn optical biosensor (BioRad, Hercules Calif.). 12:0 LPA-thiol and 18:0 LPA-thiol were coupled to a maleimide modified GLC sensor chip (Cat. No 176-5011). First, the GLC chip was activated with an equal mixture of sulfo-NHS/EDC for seven minutes followed by a 7 minute blocking step with ethyldiamine. Next sulfo-MBS (Pierce Co., cat #22312) was passed over the surfaces at a concentration of 0.5 mM in HBS running buffer (10 mM HEPES, 150 mM NaCl, 0.005% tween-20, pH 7.4). LPA-thiol was diluted into the HBS running buffer to a concentration of 10, 1 and 0.1 uM and injected for 7 minutes producing 3 different density LPA surfaces (˜100, ˜300 and ˜1400 RU). Next, binding data for the humanized antibodies was collected using a 3-fold dilution series starting with 25 nM as the highest concentration (original stocks were each diluted 1 to 100). Surfaces were regenerated with a 10 second pulse of 100 mM HCl. All data were collected at 25° C. Controls were processed using a reference surface as well as blank injections. […] In order to extract estimates of the binding constants, data from the varying antibody concentrations were globally fit using 1-site and 2-site models. This produced estimates of the affinity for the bivalent (site 1) and monovalent site (site 2).

SKOV3 tumor = experiment: SKOV3 ovarian tumor progression in nude mice; assay type: in vivo; settings: with lowering of serum and ascites IL-8, IL-6, GM-CSF
Experimental: Human mAb LT3015 reduced ovarian tumor SKOV3 progression and circulating cytokines in biological fluids. Nude mice were engrafted with either 10 mg/kg LT3015, vehicle, or 2 mg/kg paclitaxel (Taxol). After 56 days, mice were sacrificed and the peritoneal cavities were analyzed for tumor burden and ascites fluid accumulation. Tumors were harvested and final tumor weights were determined along with ascites volumes. Data were analyzed by ANOVA and student's t-test analysis. […] Serum and ascites levels of IL-6, IL-8, GM-CSF and VEGF were measured using ELISA kits from R&D systems, Minneapolis Minn.

[6] = Pharmacokinetics of Lpathomab in mice; assay type: in vivo
Experimental: Preliminary PK studies were conducted with Lpathomab. For IV dosed groups, mice were injected with a single 30 mg/kg dose and sacrificed at time points up to 15 days. Antibody was also given via i.p. administration and animals were sacrificed during the first 24 hrs to compare levels of mAb in the blood over this period of time for different routes of delivery. Pharmacokinetic parameters were assessed by WinNonlin. Three mice were sacrificed at each time point and plasma samples were collected and analyzed for mAb levels by ELISA.

neovascularization = experiment: Classical angiogenesis models; assay type: in vivo; settings: two classical angiogenesis models

B1: LT3000: Murine anti-LPA monoclonal antibody clone B7, IgG1k, renamed Lpathomab, also known as LT3000; hybridoma 504B7.1, ATCC PTA-8420 (antibody, V domains shown)
VH: QVQLQQSGAELVRPGTSVKVSCKASGYGFINYLIEWIKQRPGQGLEWIGLINPGSDYTNYNENFKGKATLTADKSSSTAYMHLSSLTSEDSAVYFCARRFGYYGSGNYFDYWGQGTTLTVSS
VL: DVVMTQTPLSLPVSLGDQASISCTSGQSLVHINGNTYLHWYLQKPGQSPKLLIYKVSNLFSGVPDRFSGSGSGTDFTLKISRVEAEDLGVYFCSQSTHFPFTFGTGTKLEIK
- EC50 ([1]; 12:0 LPA 0.1 uM, mAb 0 to 0.4 ug/ml): 0.413 nM
- Max (OD450), 12:0 LPA ([1]; maximal binding): 1.395 OD450
- Kd ([2]; apparent affinity): 1.6 ± 0.1 pM
- ka (M^−1 s^−1) ([2]; association rate constant, ± standard deviation): 6.2 ± 0.1 × 10^5 M^−1 s^−1
- kd ([2]; dissociation rate constant): 1e-06 s⁻¹
- MI, 14:0 LPA [3]: 61.3%
- MI (%), DSPA [4]: 0%
- Solubility (Solubility): >40 mg/mL in 6.6 mM phosphate, 154 mM sodium
- Invasion, % Inhibition (over LPA taken as 100) (SKOV3 cell invasion): 95* %
- LPA protection from death induced by chemotherapeutic agent (Taxol) (SKOV3 cells; LPA responsive cells, 24 h): blocked the ability of LPA to protect cells from death
- Apoptosis, % Induction (over LPA + TAXOL taken as 100) (SKOV3 cells; Lpathomab 150 μg/mL, 1 μM Taxol, 1 μM 18:1 LPA, n = 1): 79%
- Taxol-induced caspase activation (SKOV3 cells; SKOV3, serum-containing culture medium): enhanced
- Kd ([5]; first value (site 1, bivalent), read-out: KD (C12)): 0.027 nM
- Kd ([5]; value in parentheses (site 2, monovalent), read-out: KD (C12), value in parentheses): 0.007 nM
- SKOV3 tumor progression (SKOV3 tumor): significantly reduced
- time until fully distributed to the blood ([6]; i.p. administration): 6 to 12 h
- half-life ([6]; i.v. administration, listed as murine antibody): ~4 days
- neovascularization (neovascularization): inhibited
